Reference: US20030113828A1 (published 2003)
Square brackets hold non-standard residues; d marks the D form. Ends that are not written are not given here. pY = N[C@@H](Cc1ccc(OP(=O)(O)O)cc1)C(=O)O

Key:
[1] = target: Syk(6-370) cleaved from GST-Syk(6-370) by thrombin (UniProt P43405 6-370); assay: surface plasmon resonance (BIAcore 3000)
Experimental: However integrins are far more abundant than ITAM containing receptor complexes on most cells. For example, Jurkat T cells express ˜80,000 copies of α4β1 (Chen et al. (1999) J Biol Chem 274:13167-13175) and only ˜-12,000 copies of the TCR (Graber et al. (1991) J Immunol 146:2935-2943) on their cell surface.
Experimental procedures, integrin cytoplasmic domain modifications, and data analysis was performed in accordance with procedures described by Yan et al. ((2001) J Biol Chem 276:28164-28170).

[2] = target: T1, GST-Zap-70(1-337) (human, UniProt P43403 1-337); assay: affinity chromatography / surface plasmon resonance
T1 construct: range 1-337; also called tandem SH2 domains of Zap-70; not shown: glutathione S-transferase (GST) from pGEX-2T
T1 sequence (looked up): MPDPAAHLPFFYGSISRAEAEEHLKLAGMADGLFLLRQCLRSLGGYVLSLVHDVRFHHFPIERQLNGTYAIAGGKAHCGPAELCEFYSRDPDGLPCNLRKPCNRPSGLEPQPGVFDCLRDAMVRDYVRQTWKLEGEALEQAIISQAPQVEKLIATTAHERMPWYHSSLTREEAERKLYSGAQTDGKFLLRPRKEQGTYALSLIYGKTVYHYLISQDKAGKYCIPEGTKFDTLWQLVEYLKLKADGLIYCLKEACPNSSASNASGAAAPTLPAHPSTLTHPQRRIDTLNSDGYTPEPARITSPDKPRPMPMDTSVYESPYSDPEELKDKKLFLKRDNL

[3] = target: T2, GST-Zap-70(1-103) (human, UniProt P43403 1-103); assay: direct binding assay
T2 construct: range 1-103; also called Zap-70 N-terminal SH2 domain; not shown: glutathione S-transferase (GST) from pGEX-2T
T2 sequence (looked up): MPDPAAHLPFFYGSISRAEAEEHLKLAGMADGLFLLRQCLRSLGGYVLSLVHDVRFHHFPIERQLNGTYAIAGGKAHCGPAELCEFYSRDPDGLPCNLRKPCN
Experimental: (§1) The regions involved in phosphotyrosine binding are widely separated and in opposite orientation (Hof et al. (1998) Cell 92:441-450).
(§2) For direct binding assays, model peptides (1 mg) were dissolved in 1 ml buffer containing 20 mM Tris (pH 7.9), 500 mM NaCl, and 6 M urea. To this, 50 ul packed His-Bind® Resin (Novagen, Madison, Wis.) was added and the mixture was rotated for 1 hour at room temperature. Immobilized peptides were washed 5× in above buffer without urea, and resuspended in 500 μl buffer containing 20 mM PIPES pH 6.8, 50 mM NaCl, 3 mM MgCl₂, 150 mM sucrose, 50 mM NaF, 40 mM Na₄P₂O₇*10H₂O (buffer A) supplemented with 0.1% TritonX-100 and 3 mM MgCl₂. Purified GST-fusion proteins were added to 0.5 ml buffer A supplemented with 0.1% TritonX-100 and 3 mM MgCl₂. Five μl of total packed resin loaded with various integrin cytoplasmic domain model proteins was added to the GST-fusion protein. The mixture was incubated for 40 minutes at room temperature with continuous rotation. The beads were then washed five times in buffer A with 0.1% TritonX-100 and 3 mM MgCl₂. Bound proteins were eluted by boiling in reducing sample buffer, fractionated by SDS PAGE, and immuno-blotted.

[4] = target: T3, GST-Zap-70(163-254) (human, UniProt P43403 163-254); assay: direct binding assay
T3 construct: also called Zap-70 C-terminal SH2 domain; not shown: glutathione S-transferase (GST) from pGEX-2T
T3 sequence (looked up): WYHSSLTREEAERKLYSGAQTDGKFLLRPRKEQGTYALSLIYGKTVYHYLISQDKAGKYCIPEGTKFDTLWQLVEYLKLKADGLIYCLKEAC
Experimental: as §1, §2

[5] = target: T4, tandem SH2 domains of SHP-2 (UniProt Q06124 1-220, limits assumed); assay: direct binding assay
T4 construct: domain: tandem SH2 domains
T4 sequence (looked up): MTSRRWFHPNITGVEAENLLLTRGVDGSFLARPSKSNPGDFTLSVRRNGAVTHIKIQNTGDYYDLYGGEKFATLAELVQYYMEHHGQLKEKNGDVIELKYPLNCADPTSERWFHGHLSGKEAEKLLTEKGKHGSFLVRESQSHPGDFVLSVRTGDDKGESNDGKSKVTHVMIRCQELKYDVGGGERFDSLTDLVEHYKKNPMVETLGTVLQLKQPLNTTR
Experimental: as §1, §2

[6] = target: T5, GST-Syk(163-270) (UniProt P43405 163-270); assay: direct binding assay
T5 construct: also called C-terminal SH2 domain of Syk; not shown: glutathione S-transferase (GST) fusion partner
Experimental: as §1, §2

[7] = target: T6, Zap-70(1-162) (human, UniProt P43403 1-162); assay: binding of Zap-70 truncation mutants to the β3 tail
T6 construct: range 1-162; also called N-terminal SH2 domain of Zap-70 with its intact IA domain
Experimental: as §2

[8] = target: T7, Zap-70(1-132) (human, UniProt P43403 1-132); assay: as above
T7 construct: range 1-132
T7 sequence (looked up): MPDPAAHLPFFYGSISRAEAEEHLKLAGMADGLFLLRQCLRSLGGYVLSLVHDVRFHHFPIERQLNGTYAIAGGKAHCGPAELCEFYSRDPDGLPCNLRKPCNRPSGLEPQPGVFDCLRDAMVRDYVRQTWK
Experimental: as §2

[9] = target: T8, GST fusion of the interdomain A of Syk (UniProt P43405 108-167); assay: direct binding assay with GST fusion of Syk interdomain A
T8 construct: domain: interdomain A; also called Syk interdomain A GST-fusion protein; not shown: glutathione S-transferase (GST) fusion partner
Experimental: as §1, §2

[10] = target: GST-Syk(6-370) (UniProt P43405 6-370); assay: direct binding of GST fusion protein to tail model protein beads, immunoblot
Experimental: (§3) Following incubation, beads were washed and bound protein was analyzed by immunoblotting.
as §2

[11] = target: T1, GST-Zap-70(1-337); assay: as above
Experimental: as §3, §2

[12] = target: T9, Syk protein tyrosine kinase (wild type) (UniProt P43405 1-635); assay: affinity chromatography of cell lysates on tail model protein beads, immunoblot
T9 construct: the printed residue numbers (K402, R195, R42, Tyr348) fit it; also called wild-type Syk; Syk kinase
Excerpt: (§4) The model protein mimics are designed with an N-terminal heptad repeat sequence joined to the integrin cytoplasmic domains. The repeats form a coiled-coil homodimer that dimerizes the integrin tails (Pfaff et al. (1998) J Biol Chem 273:6104-6109). These protein mimics are also describied in U.S. patent application Ser. No. 90/320,907, filed May 27, 1999 and U.S. patent application Ser. No. 90/323,447, filed Jun. 1, 1999, the teachings of which are herein incorporated by reference in their entirety.
as §3

[13] = target: T10, Zap-70 (human, UniProt P43403 1-619); assay: as above
T10 construct: also called Syk paralog
T10 sequence (looked up): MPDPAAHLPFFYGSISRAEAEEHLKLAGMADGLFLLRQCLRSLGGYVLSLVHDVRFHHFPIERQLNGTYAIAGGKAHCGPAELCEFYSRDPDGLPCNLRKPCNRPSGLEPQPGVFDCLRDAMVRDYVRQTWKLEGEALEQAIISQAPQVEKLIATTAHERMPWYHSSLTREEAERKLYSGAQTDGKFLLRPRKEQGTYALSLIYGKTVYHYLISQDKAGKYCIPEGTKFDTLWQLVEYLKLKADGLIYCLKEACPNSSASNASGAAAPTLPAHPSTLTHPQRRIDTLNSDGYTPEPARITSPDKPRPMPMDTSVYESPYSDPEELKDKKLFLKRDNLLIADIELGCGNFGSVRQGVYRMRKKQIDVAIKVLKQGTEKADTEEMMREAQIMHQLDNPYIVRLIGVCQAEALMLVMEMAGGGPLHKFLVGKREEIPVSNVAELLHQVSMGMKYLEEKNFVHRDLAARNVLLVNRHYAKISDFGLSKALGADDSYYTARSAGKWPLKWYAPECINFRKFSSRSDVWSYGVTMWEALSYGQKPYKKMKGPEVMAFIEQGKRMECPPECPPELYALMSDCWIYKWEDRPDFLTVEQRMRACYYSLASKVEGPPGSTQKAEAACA
Excerpt: as §4, §3

[14] = target: T9, Syk protein tyrosine kinase (wild type); assay: cell-based or functional assay
[15] = target: T9, Syk protein tyrosine kinase (wild type); assay: binding to β3 tail deletion mutant in vitro
Experimental: as §2

B1: β2 integrin cytoplasmic domain model protein (other, UniProt P05107 724-769, looked up, not shown: small tags and cut ends)
chain: KLLIHLSDLREYRRFEKEKLKSQWNNDNPLFKSATTTVMNPKFAES
modifications: not fully specified
notes: domain: cytoplasmic domain
Kd [1]: 36 nM
binding result [2]: binds

B2: integrin β3 cytoplasmic tail model protein (other, UniProt P05106 742-788, looked up, not shown: a dimerising Fc or GST)
chain: KLLITIHDRKEFAKFEEERARAKWDTANNPLYKEATSTFTNITYRGT
modifications: also: coiled-coil homodimer
notes: domain: cytoplasmic domain; Coiled-coil homodimer; also called β3 tail; β3 tail model protein
binding result [3]: binds
binding result [4]: no binding
binding result [5]: no binding
binding result [6]: no binding
Kd [1]: 24 nM
binding result [2]: binds
binding result [7]: binds
binding result [8]: binds
binding result [9]: no binding

B3: integrin β3(Y747A) cytoplasmic tail model protein (other, UniProt P05106 742-788, looked up, not shown: small tags and cut ends)
chain: KLLITIHDRKEFAKFEEERARAKWDTANNPLAKEATSTFTNITYRGT
modifications: not fully specified
notes: domain: cytoplasmic domain; also called β3(Y747A) tail; point mutant of the β3 tail (Y747A)
binding result [10]: no binding (tested: 5 nM)
binding result [11]: no binding (tested: 5 nM)
binding result [12]: no binding
binding result [13]: no binding

B4: dually-phosphorylated FcεRIγ chain ITAM peptide (peptide)
peptide: DGV[pY]TGLSTRNQET[pY]ETLKTCR
activation of Syk kinase in vitro (EC50) [14]: 1000 to 2000 nM

B5: β3(752X) cytoplasmic tail model protein (other, UniProt P05106 742-777, looked up, not shown: small tags and cut ends)
chain: KLLITIHDRKEFAKFEEERARAKWDTANNPLYKEAT
modifications: not fully specified
notes: domain: cytoplasmic domain
binding result [15]: no binding

B6: β3(759X) cytoplasmic tail model protein (other, UniProt P05106 742-784, looked up, not shown: small tags and cut ends)
chain: KLLITIHDRKEFAKFEEERARAKWDTANNPLYKEATSTFTNIT
modifications: not fully specified
notes: domain: cytoplasmic domain; C-terminal truncation
binding result [15]: no binding

B7: β1A integrin cytoplasmic domain model protein (other, UniProt P05556 752-798, looked up, not shown: small tags and cut ends)
chain: KLLMIIHDRREFAKFEKEKMNAKWDTGENPIYKSAVTTVVNPKYEGK
modifications: not fully specified
notes: domain: cytoplasmic domain
binding result [2]: binds
